In patent publication US20170051048A1 (ALDERBIO, published 2017):
Where a chain is given by its changes, count along the chain named.

B1: Antibody Ab5 (antibody, human IgG1, kappa, N297A, V domains shown)
VH: QSVEESGGRLVTPGTPLTLTCTVSGFSLSNYAVGWVRQAPGKGLEWIGIIGRNGNTWYASWARGRFTISKTSTTVDLKITSPTSEDTATYFCARGYGRSVAYYVFNIWGPGTLVTVSS
VL: AYDMTQTPASVEVAVGGTVTIKCQASQSIYSNLAWYQQRPGQPPKLLIYDASTLESGVPSRFKGSGSGTEYTLTISGVECADAASYYCQQGFTVSDIDNAFGGGTEVVVKR
B2: Antibody Ab3 (antibody, human IgG1, kappa, N297A, V domains shown)
VH: QSVEESGGRLVTPGTPLTLTCTVSGFSLSSYVMIWVRQAPGKGLEYIGITWSAGTYYASWAKGRFTISKTSSTTVDLKITSPTTEDTATYFCAGGGGSIYDIWGPGTLVTVSS
VL: AVLTQTPSPVSAAMGDTVTIKCQSSQSVYKNNYLSWYQQKPGQPPRLLIYDASNLPSGVPSRFSGSGSGTQFTLTISGVQCDDAATYYCLGDYDDDADNAFGGGTEVVVKR
B3: Antibody Ab4 (antibody, human IgG1, kappa, N297A, V domains shown)
VH: EVQLVESGGGLVQPGGSLRLSCAASGFTVSSYVMIWVRQAPGKGLEYIGITWSAGTYYASSAKGRFTISRDNSKNTLYLQMNSLRAEDTAVYYCAGGGGSIYDIWGQGTLVTVSS
VL: DIQMTQSPSTLSASVGDRVTITCQSSQSVYKNNYLSWYQQKPGKAPKLLIYDASNLPSGVPSRFSGSGSGTEFTLTISSLQPDDFATYYCLGDYDDDADNAFGGGTKVEIKR
B4: Antibody Ab6 (antibody, human IgG1, kappa, N297A)
heavy: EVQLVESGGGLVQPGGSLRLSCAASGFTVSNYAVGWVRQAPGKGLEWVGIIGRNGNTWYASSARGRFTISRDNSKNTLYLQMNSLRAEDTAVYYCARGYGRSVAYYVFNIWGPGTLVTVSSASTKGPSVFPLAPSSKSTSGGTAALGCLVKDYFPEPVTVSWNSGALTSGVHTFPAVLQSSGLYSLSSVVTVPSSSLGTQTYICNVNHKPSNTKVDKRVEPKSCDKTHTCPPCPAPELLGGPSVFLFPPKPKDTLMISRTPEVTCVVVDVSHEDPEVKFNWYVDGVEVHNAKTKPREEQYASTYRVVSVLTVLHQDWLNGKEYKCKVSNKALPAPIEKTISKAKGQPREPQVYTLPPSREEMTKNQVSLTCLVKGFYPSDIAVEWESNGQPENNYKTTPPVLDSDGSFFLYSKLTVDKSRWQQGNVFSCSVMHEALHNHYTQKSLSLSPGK
light: DIQMTQSPSTLSASVGDRVTITCQASQSIYSNLAWYQQKPGKAPKLLIYDASTLESGVPSRFSGSGSGTEYTLTISSLQPDDFATYYCQQGFTVSDIDNAFGGGTKVEIKRTVAAPSVFIFPPSDEQLKSGTASVVCLLNNFYPREAKVQWKVDNALQSGNSQESVTEQDSKDSTYSLSSTLTLSKADYEKHKVYACEVTHQGLSSPVTKSFNRGEC
B5: Antibody Ab2 (antibody, human IgG1, kappa, N297A, V domains shown)
VH: EVQLVESGGGLVQPGGSLRLSCAASGFTVSSYAMSWVRQAPGKGLEWVGVITSIGSTVYASSAKGRFTISRDNSKNTLYLQMNSLRAEDTAVYYCARGYDDYDEMTYFNIWGQGTLVTVSS
VL: DIQMTQSPSTLSASVGDRVTITCQASQNIYSNLAWYQQKPGKAPKLLIYGASNLDAGVPSRFSGSGSGTEYTLTISSLQPDDFATYYCQSAFDSDSTENTFGGGTKVEIKR
B6: Antibody Ab1 (antibody, human IgG1, kappa, N297A, V domains shown)
VH: QSLEESGGRLVTPGTPLTLTCTVSGFSLSSYAMSWVRQAPGKGLEWIGVITSIGSTVYASWAKGRFTISKTSTTVDLKITSPTTEDTATYFCARGYDDYDEMTYFNIWGQGTLVTVSS
VL: ALVMTQTPSSVSAAVGGTVTINCQASQNIYSNLAWYQQRPGQRPKLLIYGASNLDAGVPSRFRGSGSGTEYTLTISDLECDDVGTYYCQSAFDSDSTENTFGGGTEVVVKR
B7: Antibody Ab12 (antibody, human IgG1, kappa, N297A, V domains shown)
VH: QVQLVESGGGVVQPGRSLRLSCAASGFSLSGYDMSWVRQAPGKGLEWVGLISYDGNTYYATSAKGRFTISRDNSKNTLYLQMSSLRAEDTAVYYCARSLYAGPNAGIGPFNIWGQGTLVTVSS
VL: AFQMTQSPSSLSASVGDRVTITCQASQNIVTNLAWYQQKPGKVPKLLIYGASTLASGVPSRFSGSGSGTDFTLTISSLQPEDVATYYCQSYDGFNSAGFGGGTKVEIKR
B8: Antibody Ab11 (antibody, human IgG1, kappa, N297A, V domains shown)
VH: QSLEESGGRLVTPGTPLTLTCTASGFSLSGYDMSWVRQAPGKGLEYIGLISYDGNTYYATWAKGRFTISKTSTTVDLKITSPTTEDTATYFCARSLYAGPNAGIGPFNIWGQGTLVTVSS
VL: AFELTQTPSSVEAAVGGTVTIKCQASQNIVTNLAWYQQKPGQPPKLLIYGASTLASGVSSRFKGSGSGTQFTLTISDLECADAATYFCQSYDGFNSAGFGGGTEVVVKR
B9: Antibody Ab16 (antibody, human IgG1, kappa, N297A, V domains shown)
VH: QSVEEFGGRLVTPGTPLTLTCTVSGFSLNNYAMTWVRQAPGKGLEWIGIIGSIGTTYYASWAKGRFFISKTSTTVDLKIISPTTEDTATYFCARDAGVTVDGYGYYFNIWGPGTLVTVSS
VL: ALVMTQTPSSTSEPVGGTVTINCQASQNIGNDLSWYQQKPGQPPELLIYSTSKLATGVPKRFSGSRSGTQFTLTISDLECDDAATYYCLGVYSYISDDGNAFGGGTEVVVKR
B10: Antibody Ab17 (antibody, human IgG1, kappa, N297A, V domains shown)
VH: QSLEESGGRLVTPGGSLTLTCAASGFSLTGYNLVWVRQAPGKGLEWIGFISYGDTTYYASWAKGRFTISKTSTTVTLTITDLQPSDTGTYFCARETANTYDYGIWGPGTLVTVSS
VL: AIEMTQTPFSVSAAVGGTVTIKCQASQTISNYLAWYQQKPGQPPKLLIYGASNLESGVPSRFKGSGSGTQFTLTISDLECDDAATYYCQQGYTISNVDNNVFGGGTEVVVKR
B11: Antibody Ab18 (antibody, human IgG1, kappa, N297A, V domains shown)
VH: EVQLVESGGGLVQPGGSLRLSCAASGFTVSGYNLVWVRQAPGKGLEWVGFISYGDTTYYASSAKGRFTISRDNSKNTLYLQMNSLRAEDTAVYYCARETANTYDYGIWGQGTLVTVSS
VL: DIQMTQSPSTLSASVGDRVTITCQASQTISNYLAWYQQKPGKAPKLLIYGASNLESGVPSRFSGSGSGTEFTLTISSLQPDDFATYYCQQGYTISNVDNNVFGGGTKVEIKR
B12: Antibody Ab8 (antibody, human IgG1, kappa, N297A, V domains shown)
VH: QVQLVESGGGVVQPGRSLRLSCAASGFTFSSYAMIWVRQAPGKGLEYIGYIDTDTSAYYASSVKGRFTISRDNSKNTLYLQMSSLRAEDTAVYYCARSYAAYGGYPATFDPWGQGTLVTVSS
VL: DIQMTQSPSSLSASVGDRVTITCQASEDIYNLLAWYQQKPGKVPKLLIYSASTLASGVPSRFSGSGSGTDYTLTISSLQPEDVATYYCQNNYLVTTYGVAFGGGTKVEIKR
B13: Antibody Ab9 (antibody, human IgG1, kappa, N297A, V domains shown)
VH: QSVEESGGRLVTPGTPLTLTCTVSGIDLSMYSMGWVRQAPGKGLEYIGWISYGGTAYYASWAKGRFTISKTSTTVELKITSPTIEDTATYFCARETPVNYYLDIWGQGTLVTVSS
VL: AYDMTQTPASVSAAVGGTVTIKCQASENIGSYLAWYQQKPGQPPELLIYRASTLASGVPSRFKGSGSGTQFTLTISGVECADAATYYCQQGYNSENLDNAFGGGTEVVVKR
B14: Antibody Ab10 (antibody, human IgG1, kappa, N297A, V domains shown)
VH: QVQLVESGGGVVQPGRSLRLSCAASGFTFSMYSMGWVRQAPGKGLEYIGWISYGGTAYYASSAKGRFTISRDNSKNTLYLQMSSLRAEDTAVYYCARETPVNYYLDIWGQGTLVTVSS
VL: AYDMTQSPSSLSASVGDRVTITCQASENIGSYLAWYQQKPGKVPKLLIYRASTLASGVPSRFSGSGSGTDFTLTISSLQPEDVATYYCQQGYNSENLDNAFGGGTKVEIKR
B15: Antibody Ab7 (antibody, human IgG1, kappa, N297A, V domains shown)
VH: QEQLKESGGRLVTPGTPLTLTCTVSGFSLSSYAMIWVRQAPGKGLEYIGYIDTDTSAYYASWVKGRFTISRTSTTVDLKITSPTTEDTATYFCARSYAAYGGYPATFDPWGPGTLVTVSS
VL: DVVMTQTPASVSQPVGGTVTIKCQASEDIYNLLAWYQQKPGQPPKLLIYSASTLASGVPSRFKGSGSGTEYTLTISGLECADAATYYCQNNYLVTTYGVAFGGGTEVVVKR
B16: Antibody Ab15 (antibody, human IgG1, kappa, N297A, V domains shown)
VH: QSVEESGGRLVTPGTPLTLTCTVSGIDLSSYAMIWVRQAPGKGLEYIGIIWSGGTYYATWAKGRFTISKTSTTVDLQITSPTTEDAATYFCAAGGGSIYDVWGPGTLVTVSS
VL: AAVLTQTPSPVSAAVGDTVTIKCQSSQSVYKNNYLSWYQQKPGQPPKLLIYDASNLPSGVPSRFSGSGSGTQFTLTISGVQCDDAATYYCLGDYDDDTDNGFGGGTEVVVKR
B17: Antibody Ab13 (antibody, human IgG1, kappa, N297A, V domains shown)
VH: QSVEASGGRLVTPGTPLTLTCTASGFSLSTYWMSWVRQAPGKGLEWIGDIYFSNEETNYASWAKGRFTISKTSTTVDLNVISPTTEDTATYFCARGSPDVDIGIDMWGPGTLVTVSS
VL: AAVLTQTPSPVSAAVGGTVSISCQSSQNVYKNNYLSWYQQKPGQPPKLLIYKASTLASGVPSRFKGGGSGTDFTLTISDVQCDAAATYYCAGGYTSSSDNAFGGGTEVVVKR
B18: Antibody Ab19 (antibody, human IgG1, kappa, N297A, V domains shown)
VH: B17 VH with T12M, T15G, P16S, S61T, D101E, G103A, P109Q
VL: B17 VL with G67S, T95S
B19: Antibody Ab14 (antibody, human IgG1, kappa, N297A, V domains shown)
VH: EVQLVESGGGLVQPGGSLRLSCAASGFTVSTYWMSWVRQAPGKGLEWVGDIYFSNEETNYASSAKGRFTISRDNSKNTLYLQMNSLRAEDTAVYYCARGSPDVDIGIDMWGPGTLVTVSS
VL: DIQMTQSPSSLSASVGDRVTITCQSSQNVYKNNYLSWYQQKPGKVPKLLIYKASTLASGVPSRFSGSGSGTDFTLTISSLQPEDVATYYCAGGYTSSSDNAFGGGTKVEIKR
B20: Antibody Ab20 (antibody, human IgG1, kappa, N297A, V domains shown)
VH: B19 VH with S62T, D104E, G106A, P112Q
VL: B19 VL

These binders were tested against T1, Homo sapiens Beta-Nerve Growth Factor (beta-NGF) (Homo sapiens, UniProt P01138 122-241) (assay: Antigen binding ELISA: biotinylated NGF on neutravidin plates, anti-human Fc-HRP, OD 450 nm).
T1 construct: Biotinylated and held on neutravidin plates in the ELISA; also called huNGF; B-NGF
T1 sequence (P01138 122-241): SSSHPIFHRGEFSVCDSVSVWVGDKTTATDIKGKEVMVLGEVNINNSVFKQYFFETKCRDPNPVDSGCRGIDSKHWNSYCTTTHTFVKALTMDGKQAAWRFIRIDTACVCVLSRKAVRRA
Protocol: (§1) To identify and characterize antibodies and Fab fragments that bind to human NGF, antibody- and Fab-containing solutions were tested by ELISA. Briefly, neutravidin coated plates (Thermo Scientific), were blocked with ELISA buffer (0.1 mg/mL BSA, 1×PBS pH 7.4, 0.002% Tween 20 and 0.005% sodium azide) for 1 hr at room temperature. The plates were then coated with a 1 µg/mL biotinylated B-NGF solution in ELISA buffer for 1 hour at room temperature. This was followed by a wash step (3× using PBS plus 0.05% Tween 20) and a second block with ELISA buffer. The recombinant antibodies or Fabs were then added onto the plates and incubated for 1 hour at room temperature and then washed 3× with PBS/Tween solution. For development, an anti-human Fc-HRP or an anti-human Fab-fragment HRP (1:5000 dilution in ELISA buffer) was added onto the wells and incubated for 45 min at RT. After a 3× wash step with PBS/Tween solution, the plate was developed using TMB substrate for 3 minutes, stopped using 0.5M HCl, and read at 450 nm.
For B1, the EC50 was 0.253 nM and the “EC50 (read off the curve)” value was ~0.3 nM. In the case of B2, the EC50 is reported as 0.257 nM and the “EC50 (read off the curve)” value is reported as ~0.3 nM. For B3, the EC50 was 0.535 nM and the “EC50 (read off the curve)” value was ~0.05 nM. For B4, the EC50 was 0.256 nM and the “EC50 (read off the curve)” value was ~0.3 nM. B5 was tested, and the EC50 was 0.692 nM and the “EC50 (read off the curve)” value was ~0.7 nM. In the case of B6, the EC50 is reported as 0.571 nM and the “EC50 (read off the curve)” value is reported as ~0.6 nM.

The binders below were run against T1, Homo sapiens Beta-Nerve Growth Factor … (assay: antigen binding ELISA: biotinylated NGF on neutravidin plates, anti-human Fc-HRP, OD at 450 nm).
Protocol: as §1
B7 gave an EC50 of 0.78 nM. With B8 the EC50 was 0.379 nM. Work on B9 yielded an EC50 of 0.358 nM. Work on B10 yielded an EC50 of 0.7 nM. Binder B11 has an EC50 of 0.561 nM. In the case of B12, the EC50 is reported as 0.207 nM. B13 was tested, and the EC50 was 0.221 nM. Work on B14 yielded an EC50 of 0.306 nM. With B15 the EC50 was 0.203 nM. B16 gave an EC50 of 0.239 nM. B17 showed an EC50 of 0.339 nM. In the case of B18, the EC50 is reported as 0.441 nM. In the case of B19, the EC50 is reported as 0.646 nM. B20 was tested, and the EC50 was 0.667 nM.
